Measured values as given in the supplement of paper PMC10567573.

B1: ZNF649 (parent)
chain: DECEKAYFYMSCLVKHKRIHSREK
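Further: lentivirally expressed fusions sorted by FACS into six bins by GFP to DsRed ratio, PSI derived from sequencing read proportions per bin multiplied by bin number.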

Variants of: B1
Experiment: protein stability index of a GFP-peptide fusion (GPS, HEK-293T) (PSI 1-6); higher = more stable
Settings: c terminus: a fixed tail appended
DECEKAYFYMSCLFKHKRIHSREK [V14F] gave a protein stability index of 1.78.
In the case of DECEKAYFYMSCLLKHKRIHSREK [V14L], the protein stability index is reported as 2.63.
Variant DECEKAYFYMSCLRKHKRIHSREK [V14R] has a protein stability index of 3.12.
DECEKAYFYMSCLPKHKRIHSREK [V14P] showed a protein stability index of 3.27.
Work on DECEKAYFYMSCLTKHKRIHSREK [V14T] yielded a protein stability index of 3.09.
In the case of DECEKAYFYMSCLQKHKRIHSREK [V14Q], the protein stability index is reported as 3.05.
For DECEKAYFYMSCLMKHKRIHSREK [V14M], the protein stability index was 2.18.
DECEKAYFYMSCLKKHKRIHSREK [V14K] gave a protein stability index of 3.41.
For DECEKAYFYMSCLWKHKRIHSREK [V14W], the protein stability index was 1.64.
In the case of DECEKAYFYMSCLGKHKRIHSREK [V14G], the protein stability index is reported as 2.9.
Variant DECEKAYFYMSCLHKHKRIHSREK [V14H] has a protein stability index of 3.86.
DECEKAYFYMSCLSKHKRIHSREK [V14S] gave a protein stability index of 3.65.
With DECEKAYFYMSCLCKHKRIHSREK [V14C] the protein stability index was 2.33.
With DECEKAYFYMSCLDKHKRIHSREK [V14D] the protein stability index was 3.73.
In the case of DECEKAYFYMSCLNKHKRIHSREK [V14N], the protein stability index is reported as 3.53.
DECEKAYFYMSCLIKHKRIHSREK [V14I] showed a protein stability index of 2.11.
With DECEKAYFYMSCLAKHKRIHSREK [V14A] the protein stability index was 2.88.
DECEKAYFYMSCLEKHKRIHSREK [V14E] showed a protein stability index of 3.38.
Work on DECEKAYFYMFCLVKHKRIHSREK [S11F] yielded a protein stability index of 1.66.
With DECEKAYFYMICLVKHKRIHSREK [S11I] the protein stability index was 1.76.
DECEKAYFYMCCLVKHKRIHSREK [S11C] gave a protein stability index of 2.13.
Work on DECEKAYFYMECLVKHKRIHSREK [S11E] yielded a protein stability index of 2.62.
With DECEKAYFYMHCLVKHKRIHSREK [S11H] the protein stability index was 2.82.
For DECEKAYFYMDCLVKHKRIHSREK [S11D], the protein stability index was 3.55.
DECEKAYFYMNCLVKHKRIHSREK [S11N] gave a protein stability index of 2.97.
Variant DECEKAYFYMGCLVKHKRIHSREK [S11G] has a protein stability index of 3.21.
In the case of DECEKAYFYMRCLVKHKRIHSREK [S11R], the protein stability index is reported as 2.47.
With DECEKAYFYMYCLVKHKRIHSREK [S11Y] the protein stability index was 2.68.
In the case of DECEKAYFYMLCLVKHKRIHSREK [S11L], the protein stability index is reported as 1.74.
Work on DECEKAYFYMKCLVKHKRIHSREK [S11K] yielded a protein stability index of 2.
In the case of DECEKAYFYMACLVKHKRIHSREK [S11A], the protein stability index is reported as 2.07.
Work on DECEKAYFYMQCLVKHKRIHSREK [S11Q] yielded a protein stability index of 3.03.
With DECEKAYFYMWCLVKHKRIHSREK [S11W] the protein stability index was 1.33.
With DECEKAYFYMMCLVKHKRIHSREK [S11M] the protein stability index was 2.37.
For DECEKAYFYMPCLVKHKRIHSREK [S11P], the protein stability index was 3.24.
In the case of DECEKAYFYMTCLVKHKRIHSREK [S11T], the protein stability index is reported as 2.94.
Variant DECEKAYFYMVCLVKHKRIHSREK [S11V] has a protein stability index of 1.87.
Variant DECEKAYHYMSCLVKHKRIHSREK [F8H] has a protein stability index of 3.79.
Variant DECEKAYIYMSCLVKHKRIHSREK [F8I] has a protein stability index of 2.67.
Work on DECEKAYTYMSCLVKHKRIHSREK [F8T] yielded a protein stability index of 3.52.
DECEKAYNYMSCLVKHKRIHSREK [F8N] gave a protein stability index of 3.7.
Variant DECEKAYYYMSCLVKHKRIHSREK [F8Y] has a protein stability index of 2.65.
DECEKAYSYMSCLVKHKRIHSREK [F8S] showed a protein stability index of 3.78.
In the case of DECEKAYCYMSCLVKHKRIHSREK [F8C], the protein stability index is reported as 2.96.
In the case of DECEKAYEYMSCLVKHKRIHSREK [F8E], the protein stability index is reported as 4.18.
DECEKAYRYMSCLVKHKRIHSREK [F8R] gave a protein stability index of 2.82.
Work on DECEKAYMYMSCLVKHKRIHSREK [F8M] yielded a protein stability index of 3.36.
Work on DECEKAYQYMSCLVKHKRIHSREK [F8Q] yielded a protein stability index of 3.75.
DECEKAYGYMSCLVKHKRIHSREK [F8G] gave a protein stability index of 4.02.
DECEKAYKYMSCLVKHKRIHSREK [F8K] showed a protein stability index of 3.6.
Work on DECEKAYVYMSCLVKHKRIHSREK [F8V] yielded a protein stability index of 3.23.
In the case of DECEKAYPYMSCLVKHKRIHSREK [F8P], the protein stability index is reported as 4.1.
For DECEKAYDYMSCLVKHKRIHSREK [F8D], the protein stability index was 3.88.
For DECEKAYLYMSCLVKHKRIHSREK [F8L], the protein stability index was 2.48.
DECEKAYWYMSCLVKHKRIHSREK [F8W] showed a protein stability index of 3.07.
Work on DECEKAYAYMSCLVKHKRIHSREK [F8A] yielded a protein stability index of 3.44.
DECEKAYFYQSCLVKHKRIHSREK [M10Q] showed a protein stability index of 4.12.
Variant DECEKAYFYWSCLVKHKRIHSREK [M10W] has a protein stability index of 2.36.
DECEKAYFYHSCLVKHKRIHSREK [M10H] gave a protein stability index of 3.47.
DECEKAYFYSSCLVKHKRIHSREK [M10S] showed a protein stability index of 3.19.
In the case of DECEKAYFYYSCLVKHKRIHSREK [M10Y], the protein stability index is reported as 3.11.
Variant DECEKAYFYTSCLVKHKRIHSREK [M10T] has a protein stability index of 3.19.
Work on DECEKAYFYCSCLVKHKRIHSREK [M10C] yielded a protein stability index of 2.75.
Work on DECEKAYFYPSCLVKHKRIHSREK [M10P] yielded a protein stability index of 3.16.
Work on DECEKAYFYVSCLVKHKRIHSREK [M10V] yielded a protein stability index of 2.38.
DECEKAYFYNSCLVKHKRIHSREK [M10N] showed a protein stability index of 4.14.
DECEKAYFYISCLVKHKRIHSREK [M10I] gave a protein stability index of 1.86.
In the case of DECEKAYFYKSCLVKHKRIHSREK [M10K], the protein stability index is reported as 3.74.
DECEKAYFYDSCLVKHKRIHSREK [M10D] gave a protein stability index of 3.97.
In the case of DECEKAYFYFSCLVKHKRIHSREK [M10F], the protein stability index is reported as 2.33.
DECEKAYFYLSCLVKHKRIHSREK [M10L] gave a protein stability index of 2.19.
DECEKAYFYRSCLVKHKRIHSREK [M10R] showed a protein stability index of 3.32.
Variant DECEKAYFYASCLVKHKRIHSREK [M10A] has a protein stability index of 3.61.
For DECEKAYFYGSCLVKHKRIHSREK [M10G], the protein stability index was 2.56.
With DECEKAYFYESCLVKHKRIHSREK [M10E] the protein stability index was 3.92.
Variant DECEKAYFYMSCLVKDKRIHSREK [H16D] has a protein stability index of 3.25.
With DECEKAYFYMSCLVKPKRIHSREK [H16P] the protein stability index was 2.92.
Work on DECEKAYFYMSCLVKLKRIHSREK [H16L] yielded a protein stability index of 1.84.
DECEKAYFYMSCLVKKKRIHSREK [H16K] gave a protein stability index of 2.65.
DECEKAYFYMSCLVKWKRIHSREK [H16W] showed a protein stability index of 2.29.
DECEKAYFYMSCLVKRKRIHSREK [H16R] showed a protein stability index of 2.82.
With DECEKAYFYMSCLVKVKRIHSREK [H16V] the protein stability index was 1.61.
Work on DECEKAYFYMSCLVKGKRIHSREK [H16G] yielded a protein stability index of 3.24.
DECEKAYFYMSCLVKQKRIHSREK [H16Q] gave a protein stability index of 2.64.
DECEKAYFYMSCLVKSKRIHSREK [H16S] showed a protein stability index of 3.06.
With DECEKAYFYMSCLVKCKRIHSREK [H16C] the protein stability index was 1.76.
In the case of DECEKAYFYMSCLVKIKRIHSREK [H16I], the protein stability index is reported as 1.69.
With DECEKAYFYMSCLVKYKRIHSREK [H16Y] the protein stability index was 2.11.
Variant DECEKAYFYMSCLVKNKRIHSREK [H16N] has a protein stability index of 2.75.
For DECEKAYFYMSCLVKMKRIHSREK [H16M], the protein stability index was 1.98.
In the case of DECEKAYFYMSCLVKAKRIHSREK [H16A], the protein stability index is reported as 2.51.
DECEKAYFYMSCLVKTKRIHSREK [H16T] showed a protein stability index of 2.56.
DECEKAYFYMSCLVKEKRIHSREK [H16E] showed a protein stability index of 3.53.
For DECEKAYFYMSCLVKFKRIHSREK [H16F], the protein stability index was 1.79.
